Laboratory results: article PMC3800053

B1: Snx25_A (dsDNA)
DNA 1: TCAGAAAAAGGGAAAAGGGTCAC
DNA 2: GTGACCCTTTTCCCTTTTTCTGA
B2: Snx29_Left (dsDNA)
DNA 1: TCAGATACTGGGAACACTGTCAC
DNA 2: GTGACAGTGTTCCCAGTATCTGA
B3: Snx29_Right (dsDNA)
DNA 1: TCAGACACTGAGAATACTGTCAC
DNA 2: GTGACAGTATTCTCAGTGTCTGA

molecular target: Ikaros zinc fingers 2-4 (F2-F4) (UniProt Q03267 144-223); experiment: EMSA
Sequence (Q03267 144-223): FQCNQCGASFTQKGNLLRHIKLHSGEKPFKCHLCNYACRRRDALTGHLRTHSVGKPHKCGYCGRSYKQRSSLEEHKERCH

Binder	binding result
B1	binds
B2	binds
B3	no binding

molecular target: Ikaros zinc fingers 1-4 (F1-F4) (UniProt Q03267 117-223); experiment: EMSA
Sequence (Q03267 117-223): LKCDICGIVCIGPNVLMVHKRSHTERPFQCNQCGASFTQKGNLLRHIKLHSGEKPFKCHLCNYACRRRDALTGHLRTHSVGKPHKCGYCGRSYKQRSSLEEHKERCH

Binder	binding result
B1	binds
B2	binds
B3	no binding

molecular target: Ikaros zinc fingers 1-3 (F1-F3) (UniProt Q03267 117-194); experiment: EMSA
Sequence (Q03267 117-194): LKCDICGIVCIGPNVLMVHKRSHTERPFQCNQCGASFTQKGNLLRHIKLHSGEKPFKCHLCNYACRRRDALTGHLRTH

Binder	binding result
B1	no binding
B2	binds
B3	no binding
